Reference: article PMC2756588

Tests used:
Assay in all cases: SPOT array
Bud14, P27637 = biological target: T1, Bud14, P27637; settings: median of control spots 956
T1 sequence (P27637 247-328, looked up): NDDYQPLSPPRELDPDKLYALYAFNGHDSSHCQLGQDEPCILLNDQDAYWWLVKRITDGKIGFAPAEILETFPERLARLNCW

Bem1-2, P29366 = settings: median of control spots 4347
Nbp2, Q12163 = biological target: T2, Nbp2, Q12163; settings: median of control spots 357
T2 sequence (Q12163 103-180, looked up): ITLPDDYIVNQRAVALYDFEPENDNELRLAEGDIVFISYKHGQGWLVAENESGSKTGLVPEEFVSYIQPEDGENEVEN

Lsb4, P32793 = biological target: T3, Lsb4, P32793; settings: median of control spots 397
T3 sequence (P32793 402-468, looked up): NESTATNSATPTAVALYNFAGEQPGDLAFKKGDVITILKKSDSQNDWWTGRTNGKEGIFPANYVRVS

Lsb3, P43603 = biological target: T4, Lsb3, P43603; settings: median of control spots 406
T4 sequence (P43603 385-451, looked up): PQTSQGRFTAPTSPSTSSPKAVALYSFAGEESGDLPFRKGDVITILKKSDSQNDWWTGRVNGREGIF

Sla1-3, P32790 = biological target: T5, Sla1-3, P32790; settings: median of control spots 5475
T5 sequence (P32790 344-424, looked up): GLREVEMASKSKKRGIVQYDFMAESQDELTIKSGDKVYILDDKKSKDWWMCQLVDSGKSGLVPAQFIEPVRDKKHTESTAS

Bbc1, P47068 = biological target: T6, Bbc1, P47068; settings: median of control spots 796
T6 sequence (P47068 1-78, looked up): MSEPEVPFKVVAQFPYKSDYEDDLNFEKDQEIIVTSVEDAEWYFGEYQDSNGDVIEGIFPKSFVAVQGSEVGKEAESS

Pin3, Q06449 = biological target: T7, Pin3, Q06449; settings: median of control spots 2171
T7 sequence (Q06449 53-122, looked up): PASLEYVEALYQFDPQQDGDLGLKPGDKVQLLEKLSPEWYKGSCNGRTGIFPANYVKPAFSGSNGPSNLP

Myo5, Q04439 = biological target: T8, Myo5, Q04439; settings: median of control spots 471
T8 sequence (Q04439 1072-1160, looked up): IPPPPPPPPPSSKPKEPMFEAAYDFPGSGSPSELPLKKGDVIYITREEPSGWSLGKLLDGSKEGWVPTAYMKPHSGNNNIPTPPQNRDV

Myo3, P36006 = settings: median of control spots 468
Cyk3, Q07533 = biological target: T9, Cyk3, Q07533; settings: median of control spots 1451
T9 sequence (Q07533 1-83, looked up): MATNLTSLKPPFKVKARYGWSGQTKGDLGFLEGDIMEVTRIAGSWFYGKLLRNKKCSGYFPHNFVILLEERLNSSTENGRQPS

Fus1, P11710 = biological target: T10, Fus1, P11710; settings: median of control spots 1200
T10 sequence (P11710 432-512, looked up): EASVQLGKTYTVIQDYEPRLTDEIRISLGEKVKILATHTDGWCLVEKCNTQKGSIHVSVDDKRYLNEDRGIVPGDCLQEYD

Lsb1, P53281 = biological target: T11, Lsb1, P53281; settings: median of control spots 388
T11 sequence (P53281 45-122, looked up): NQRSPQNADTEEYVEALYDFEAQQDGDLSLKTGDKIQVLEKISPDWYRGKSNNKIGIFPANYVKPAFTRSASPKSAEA

Bem1-1, P29366 = settings: median of control spots 4282
Sho1, P40073 = settings: median of control spots 1148
Bzz1-1, P38822 = biological target: T12, Bzz1-1, P38822; settings: median of control spots 4446
T12 sequence (P38822 478-572, looked up): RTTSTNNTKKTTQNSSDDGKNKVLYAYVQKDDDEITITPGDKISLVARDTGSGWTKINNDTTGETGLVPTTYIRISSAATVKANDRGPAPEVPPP

Pex13, P80667 = biological target: T13, Pex13, P80667; settings: median of control spots 1341
T13 sequence (P80667 295-386, looked up): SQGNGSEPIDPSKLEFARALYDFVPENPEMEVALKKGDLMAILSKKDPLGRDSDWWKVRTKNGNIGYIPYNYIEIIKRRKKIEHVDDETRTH

Rvs167, P39743 = settings: median of control spots 2707
Abp1, P15891 = biological target: T14, Abp1, P15891; settings: median of control spots 935
T14 sequence (P15891 535-592, looked up): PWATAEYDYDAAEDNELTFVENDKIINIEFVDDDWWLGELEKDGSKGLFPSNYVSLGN

Boi1, P38041 = biological target: T15, Boi1, P38041; settings: median of control spots 1162
T15 sequence (P38041 1-86, looked up): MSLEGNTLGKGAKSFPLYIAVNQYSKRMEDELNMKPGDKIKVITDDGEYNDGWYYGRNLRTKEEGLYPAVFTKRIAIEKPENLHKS

Bzz1-2, P38822 = biological target: T16, Bzz1-2, P38822; settings: median of control spots 4538
T16 sequence (P38822 568-633, looked up): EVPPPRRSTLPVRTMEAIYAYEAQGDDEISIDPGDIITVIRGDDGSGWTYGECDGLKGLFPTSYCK

Hof1, Q05080 = biological target: T17, Hof1, Q05080; settings: median of control spots 4086
T17 sequence (Q05080 590-669, looked up): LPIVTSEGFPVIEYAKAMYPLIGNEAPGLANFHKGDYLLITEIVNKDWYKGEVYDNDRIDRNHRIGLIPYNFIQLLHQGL

Hse1, P38753 = biological target: T18, Hse1, P38753; settings: median of control spots 1727
T18 sequence (P38753 208-285, looked up): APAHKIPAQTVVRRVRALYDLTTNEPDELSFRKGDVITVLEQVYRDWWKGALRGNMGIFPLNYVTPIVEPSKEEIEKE

GST = settings: median of control spots 978
Boi2, P39969 = biological target: T19, Boi2, P39969; settings: median of control spots 1161
T19 sequence (P39969 32-116, looked up): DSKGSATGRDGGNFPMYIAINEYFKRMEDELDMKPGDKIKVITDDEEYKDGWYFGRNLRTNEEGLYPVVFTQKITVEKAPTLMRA

Cdc25, P04821 = biological target: T20, Cdc25, P04821; settings: median of control spots 969
T20 sequence (P04821 50-136, looked up): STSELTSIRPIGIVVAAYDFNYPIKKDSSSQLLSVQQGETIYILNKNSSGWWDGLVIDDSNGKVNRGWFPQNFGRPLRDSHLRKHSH

Sla1-2, P32790 = biological target: T21, Sla1-2, P32790; settings: median of control spots 712
T21 sequence (P32790 60-140, looked up): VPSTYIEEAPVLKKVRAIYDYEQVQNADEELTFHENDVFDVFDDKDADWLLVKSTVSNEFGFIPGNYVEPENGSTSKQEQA

Chain of Rvs167, P39743 (P39743 419-482): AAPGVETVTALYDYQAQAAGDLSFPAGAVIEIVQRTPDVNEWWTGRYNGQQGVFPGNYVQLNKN
Chain of Bem1-1, P29366 (P29366 55-141): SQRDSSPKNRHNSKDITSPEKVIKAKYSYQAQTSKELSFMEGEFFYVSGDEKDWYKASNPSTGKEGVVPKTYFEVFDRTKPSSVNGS
Chain of Sho1, P40073 (P40073 287-367): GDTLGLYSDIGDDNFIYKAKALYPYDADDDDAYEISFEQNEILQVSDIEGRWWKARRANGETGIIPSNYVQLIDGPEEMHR
Chain of Bem1-2, P29366 (P29366 139-227): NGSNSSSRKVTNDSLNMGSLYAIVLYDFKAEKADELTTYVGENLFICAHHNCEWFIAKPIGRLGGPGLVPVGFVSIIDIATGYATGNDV

Binder RLSRLLLSLPPESFT has an SPOT intensity (Bud14, P27637) of 50, an SPOT intensity (Bem1-2, P29366) of 11 and an SPOT intensity (Nbp2, Q12163) of 42. The SPOT intensity (Lsb4, P32793) was 3, the SPOT intensity (Lsb3, P43603) was 0 and the SPOT intensity (Sla1-3, P32790) was 45. It also gave an SPOT intensity (Bbc1, P47068) of 47, an SPOT intensity (Pin3, Q06449) of 27 and an SPOT intensity (Myo5, Q04439) of 0. For the same binder, the SPOT intensity (Myo3, P36006) was 10, the SPOT intensity (Cyk3, Q07533) was 2 and the SPOT intensity (Fus1, P11710) was 81. It also gave an SPOT intensity (Lsb1, P53281) of 6, an SPOT intensity (Bem1-1, P29366) of 0 and an SPOT intensity (Sho1, P40073) of 66. For the same binder, the SPOT intensity (Bzz1-1, P38822) was 0, the SPOT intensity (Pex13, P80667) was 19 and the SPOT intensity (Rvs167, P39743) was 0. It also gave an SPOT intensity (Abp1, P15891) of 57, an SPOT intensity (Boi1, P38041) of 7 and an SPOT intensity (Bzz1-2, P38822) of 4. The SPOT intensity (Hof1, Q05080) was 89, the SPOT intensity (Hse1, P38753) was 59 and the SPOT intensity (GST) was 0. For the same binder, the SPOT intensity (Boi2, P39969) was 2, the SPOT intensity (Cdc25, P04821) was 172 and the SPOT intensity (Sla1-2, P32790) was 0.

In the case of APKREAPKPPANTSP, the SPOT intensity (Bud14, P27637) is reported as 0, the SPOT intensity (Bem1-2, P29366) is reported as 0 and the SPOT intensity (Nbp2, Q12163) is reported as 139. The SPOT intensity (Lsb4, P32793) was 1, the SPOT intensity (Lsb3, P43603) was 0 and the SPOT intensity (Sla1-3, P32790) was 12. For the same binder, the SPOT intensity (Bbc1, P47068) was 56, the SPOT intensity (Pin3, Q06449) was 2 and the SPOT intensity (Myo5, Q04439) was 126. The SPOT intensity (Myo3, P36006) was 277, the SPOT intensity (Cyk3, Q07533) was 0 and the SPOT intensity (Fus1, P11710) was 0. For the same binder, the SPOT intensity (Lsb1, P53281) was 0, the SPOT intensity (Bem1-1, P29366) was 0 and the SPOT intensity (Sho1, P40073) was 0. The SPOT intensity (Bzz1-1, P38822) was 10, the SPOT intensity (Pex13, P80667) was 7 and the SPOT intensity (Rvs167, P39743) was 0. It also gave an SPOT intensity (Abp1, P15891) of 9, an SPOT intensity (Boi1, P38041) of 0 and an SPOT intensity (Bzz1-2, P38822) of 0. It also gave an SPOT intensity (Hof1, Q05080) of 0, an SPOT intensity (Hse1, P38753) of 0 and an SPOT intensity (GST) of 0. The SPOT intensity (Boi2, P39969) was 0, the SPOT intensity (Cdc25, P04821) was 3 and the SPOT intensity (Sla1-2, P32790) was 0.

PELAPKREAPKPPAN showed an SPOT intensity (Bud14, P27637) of 0, an SPOT intensity (Bem1-2, P29366) of 1 and an SPOT intensity (Nbp2, Q12163) of 281. It also gave an SPOT intensity (Lsb4, P32793) of 2, an SPOT intensity (Lsb3, P43603) of 0 and an SPOT intensity (Sla1-3, P32790) of 0. The SPOT intensity (Bbc1, P47068) was 7, the SPOT intensity (Pin3, Q06449) was 0 and the SPOT intensity (Myo5, Q04439) was 262. For the same binder, the SPOT intensity (Myo3, P36006) was 497, the SPOT intensity (Cyk3, Q07533) was 1 and the SPOT intensity (Fus1, P11710) was 0. For the same binder, the SPOT intensity (Lsb1, P53281) was 0, the SPOT intensity (Bem1-1, P29366) was 0 and the SPOT intensity (Sho1, P40073) was 0. The SPOT intensity (Bzz1-1, P38822) was 4, the SPOT intensity (Pex13, P80667) was 0 and the SPOT intensity (Rvs167, P39743) was 0. It also gave an SPOT intensity (Abp1, P15891) of 0, an SPOT intensity (Boi1, P38041) of 1 and an SPOT intensity (Bzz1-2, P38822) of 4. The SPOT intensity (Hof1, Q05080) was 0, the SPOT intensity (Hse1, P38753) was 0 and the SPOT intensity (GST) was 0. It also gave an SPOT intensity (Boi2, P39969) of 1, an SPOT intensity (Cdc25, P04821) of 0 and an SPOT intensity (Sla1-2, P32790) of 0.

In the case of QLLNPNRRAPRRPLS, the SPOT intensity (Bud14, P27637) is reported as 11, the SPOT intensity (Bem1-2, P29366) is reported as 169 and the SPOT intensity (Nbp2, Q12163) is reported as 1130. For the same binder, the SPOT intensity (Lsb4, P32793) was 35, the SPOT intensity (Lsb3, P43603) was 43 and the SPOT intensity (Sla1-3, P32790) was 9. For the same binder, the SPOT intensity (Bbc1, P47068) was 158, the SPOT intensity (Pin3, Q06449) was 30 and the SPOT intensity (Myo5, Q04439) was 13. It also gave an SPOT intensity (Myo3, P36006) of 168, an SPOT intensity (Cyk3, Q07533) of 1 and an SPOT intensity (Fus1, P11710) of 1. For the same binder, the SPOT intensity (Lsb1, P53281) was 56, the SPOT intensity (Bem1-1, P29366) was 0 and the SPOT intensity (Sho1, P40073) was 50. The SPOT intensity (Bzz1-1, P38822) was 0, the SPOT intensity (Pex13, P80667) was 21 and the SPOT intensity (Rvs167, P39743) was 0. The SPOT intensity (Abp1, P15891) was 125, the SPOT intensity (Boi1, P38041) was 5 and the SPOT intensity (Bzz1-2, P38822) was 9. For the same binder, the SPOT intensity (Hof1, Q05080) was 3, the SPOT intensity (Hse1, P38753) was 20 and the SPOT intensity (GST) was 2. The SPOT intensity (Boi2, P39969) was 2, the SPOT intensity (Cdc25, P04821) was 16 and the SPOT intensity (Sla1-2, P32790) was 3.
